Measurements as given in doi:10.1101/2022.12.05.519077.

Target: Kcnj13 (Kir7.1) from D. rerio fused to mCherry, with N-terminal His-tags (D. rerio)
Assay: mass photometry

Substance: Kcnj13 (Kir7.1) from D. rerio fused to mCherry, with N-terminal His-tags (natural protein)
- stoichiometry N: 4
